{"source": "patent US8501695B2", "about": "“Tissue kallikrein for the treatment of diseases associated with amyloid protein” (DiaMedica, Inc., priority 2007, dated 2013)", "assay": "Pharmacokinetic study of intranasal tissue kallikrein (125I-KLK1 tissue concentrations by gamma counting)", "assay_type": "in vivo", "settings": "rat, 30 min. end point", "experimental": "The purpose of this study was to quantify the amount of tissue kallikrein (KLK1) reaching the central nervous system and peripheral tissues after intranasal administration to anesthetized rats. At 30 min after KLK1 administration, animals were transcardially perfused with ice-cold saline followed by paraformaldehyde fixative and tissues were dissected. The amount of radiolabeled KLK1 in each tissue sample was quantified by gamma counting and tissue concentrations were calculated using tissue weight and gamma counting of standards of the dosing solutions\nAdult male Sprague Dawley rats (n=10, mean 335.4 g±4.57 g SE) were used for this study. Animals were group housed in the Regions Hospital Animal Care Facility with free access to food and water. Animals were kept on a 12 h light cycle. All experimental procedures were approved by the Animal Care and Use Committee at Regions Hospital under IACUC protocol number 08-022.\nTissue kallikrein was sent to Perkin-Elmer for ^125I-labelling (Quote NEX-084, lot C1541583). Non-labeled KLK1 from Sigma (cat#K3627-1KU, lot 018K1441) was also used. Non-labeled KLK1 was dissolved in 1×PBS (10×PBS, Sigma, cat #P5493, lot 027K8405 diluted in sterile water). The average dose was 48.1 μL, 75 μCi, and 2.6 mg.\n• a. Prior to anesthesia, each rat was weighed. • b. An anesthesia cocktail was prepared and full, half, and quarter anesthesia doses were calculated according to the animal's weight with a full dose containing 30 mg/kg ketamine, 6 mg/kg xylazine, and 1 mg/kg acepromazine. • c. A 1-cc syringe fitted with a 25 G or 27 G, ½ inch needle was assembled and a full dose was drawn into the syringe for injection. • d. Rats were restrained in a towel as follows. Rats were placed ventral side down in the middle of a hand towel. The towel was then wrapped around the head and shoulders to restrain. Wrapped animals remained ventral side down while the left hind leg was located. • e. The left hind leg was drawn to the side and the needle was inserted just beneath the skin (subcutaneous) above the thigh. After ensuring that the needle was placed subcutaneously (and not intramuscularly), full doses were injected. Rats were placed in holding cages and the injection time noted. Animals should be under within 5 min. • f. Anesthesia was monitored throughout the procedures by assessing reflexes using pinching of the hind paw or tail. If a reflex was present, a half or quarter dose booster was administered as necessary. • g. During drug administration, animals received a half dose booster roughly 20-25 min after initial dose. Intranasal Delivery of ^125I-KLK1 • a. Anesthetized rats were placed on their backs on a heating pad in a metal surgical tray. The heating pad was connected to a thermostat and was automatically regulated to maintain a 37° C. temperature based on continuous measurement from a rectal probe. • b. A 2″×2″ gauze pad was rolled tightly into a pillow, taped together, and under the neck to maintain a correct neck position horizontal with the counter. • c. A lead impregnated shield was placed between the surgical tray and the experimenter for protection against radiation. The dose solution, pipette, pipette tips, and waste receptacle were arranged behind the shield for easy access. • d. A 6 μL drop was loaded into the pipette behind the shield. • e. A cotton swab covered in parafilm was used to occlude one naris completely (the flat part of the swab was pushed gently against the naris to prevent airflow), while the 6 μL drop was expelled slowly from the pipette (held at a 45° angle from the rat's midline), forming a drop on the pipette tip. The drop was lowered onto the open naris to be inhaled. • f. After two minutes, the alternate naris was occluded and a 6 μL drop was administered in the same fashion. • g. A drop was administered as described above every two minutes to alternating nares until a total of 8 drops was delivered (4 to each naris) over 14 min. • h. […]", "key": {"[1]": {"settings": "individual animal, listed as kallikrien"}}, "note": "Where “and” joins values, the source holds several entries; their conditions need not be identical. Identical values can stand only once."}
{"molecule": "tissue kallikrein: serine protease that cleaves kininogen into kallidin; polypeptide SEQ ID NO:1 (Sus scrofa kallikrein 1), KLK1 from Sigma (protein, listed as Sus scrofa, 125I label in one form) MWSLVMRLALSLAGTGAAPPIQSRIIGGRECEKDSHPWQVAIYHYSSFQCGGVLVDPKWVLTAAHCKNDNYQVWLGRHNLFENEVTAQFFGVTADFPHPGFNLSLLKNHTKADGKDYSHDLMLLRLQSPAKITDAVKVLELPTQEPELGSTCQASGWGSIEPGPDDFEFPDEIQCVELTLLQNTFCADAHPDKVTESMLCAGYLPGGKDTCMGDSGGPLICNGMWQGITSWGHTPCGSANKPSIYTKLIFYLDWINDTITENP", "values": [{"measurement": "concentration in Ventral Dura", "setting": "Avg, outliers removed", "result": 143.0, "unit": "nM"}, {"measurement": "concentration in Amygdala", "setting": "[1]", "result": "13.5 nM and 10.9 nM and 14.16 nM and 18.3 nM and 12.1 nM and 25.4 nM and 15.2 nM and 13.9 nM and 24.6 nM and 13.7 nM"}, {"measurement": "concentration in Anterior Olfactory Nucleus", "setting": "[1]", "result": "23.1 nM and 15.1 nM and 24.0 nM and 20.5 nM and 19.3 nM and 44.8 nM and 29.2 nM and 25.2 nM and 45.6 nM and 21.2 nM"}, {"measurement": "concentration in Anterior Trigeminal Nerve", "setting": "[1]", "result": "233.5 nM and 75.1 nM and 83.9 nM and 83.5 nM and 108.3 nM and 68.8 nM and 111.7 nM and 139.2 nM and 77.5 nM"}, {"measurement": "concentration in Axillary Nodes (2)", "setting": "[1]", "result": "44.6 nM and 38.9 nM and 58.8 nM and 44.4 nM and 43.9 nM and 48.8 nM and 28.6 nM and 33.5 nM and 47.7 nM and 34.0 nM"}, {"measurement": "concentration in Blood Sample", "setting": "[1]", "result": "292.4 nM and 272.4 nM and 327.7 nM and 288.9 nM and 275.6 nM and 231.1 nM and 233.0 nM and 251.9 nM and 242.4 nM and 268.4 nM"}, {"measurement": "concentration in Carotid Artery", "setting": "[1]", "result": "127.5 nM and 55.9 nM and 111.2 nM and 103.2 nM and 138.7 nM and 175.1 nM and 84.9 nM and 115.6 nM and 108.2 nM"}, {"measurement": "concentration in Cerebellum", "setting": "[1]", "result": "9.3 nM and 10.6 nM and 10.06 nM and 13.2 nM and 11.2 nM and 12.2 nM and 8.6 nM and 14.7 nM and 7.8 nM"}, {"measurement": "concentration in Cervical Nodes (2)", "setting": "[1]", "result": "214.4 nM and 3.1 nM and 116.3 nM and 72.1 nM and 100.5 nM and 119.9 nM and 103.7 nM and 196.0 nM and 174.6 nM"}, {"measurement": "concentration in Circle of Willis & Basilar Artery", "setting": "[1]", "result": "190.7 nM and 56.9 nM and 44.4 nM and 133.6 nM and 87.4 nM and 178.2 nM and 115.5 nM and 44.1 nM and 134.1 nM and 48.3 nM"}, {"measurement": "concentration in Dorsal Dura", "setting": "[1]", "result": "116.0 nM and 92.5 nM and 118.2 nM and 156.9 nM and 116.8 nM and 131.0 nM and 132.9 nM and 242.5 nM and 89.5 nM"}, {"measurement": "concentration in Esophagus", "setting": "[1]", "result": "118.0 nM and 66.9 nM and 109.6 nM and 87.7 nM and 68.1 nM and 40.9 nM and 65.1 nM and 85.4 nM and 128.1 nM and 82.4 nM"}, {"measurement": "concentration in Extra Cortex", "setting": "[1]", "result": "10.3 nM and 11.3 nM and 12.40 nM and 13.3 nM and 13.8 nM and 17.2 nM and 12.8 nM and 16.6 nM and 9.8 nM"}, {"measurement": "concentration in Extra Slice #1", "setting": "[1]", "result": "17.1 nM and 16.2 nM and 19.4 nM and 16.6 nM and 16.9 nM and 43.2 nM and 31.1 nM and 29.6 nM and 22.7 nM"}, {"measurement": "concentration in Extra Slice #2", "setting": "[1]", "result": "9.2 nM and 11.0 nM and 12.33 nM and 17.0 nM and 11.7 nM and 28.5 nM and 17.6 nM and 17.3 nM and 27.0 nM and 15.6 nM"}, {"measurement": "concentration in Extra Slice #3", "setting": "[1]", "result": "8.8 nM and 9.6 nM and 11.43 nM and 10.7 nM and 9.9 nM and 23.3 nM and 17.2 nM and 13.6 nM and 21.0 nM and 13.8 nM"}, {"measurement": "concentration in Extra Slice #4", "setting": "[1]", "result": "7.5 nM and 8.6 nM and 9.4 nM and 9.9 nM and 18.4 nM and 14.7 nM and 10.5 nM and 17.0 nM and 11.8 nM"}, {"measurement": "concentration in Extra Slice #5", "setting": "[1]", "result": "7.7 nM and 7.6 nM and 10.7 nM and 9.2 nM and 10.8 nM and 19.2 nM and 18.6 nM and 9.7 nM and 14.8 nM and 9.9 nM"}, {"measurement": "concentration in Extra Slice #6", "setting": "[1]", "result": "7.9 nM and 8.1 nM and 12.1 nM and 10.5 nM and 12.2 nM and 16.7 nM and 10.4 nM and 14.8 nM and 9.5 nM"}, {"measurement": "concentration in Frontal Cortex", "setting": "[1]", "result": "12.0 nM and 16.1 nM and 15.8 nM and 16.9 nM and 17.4 nM and 45.7 nM and 27.7 nM and 26.8 nM and 38.9 nM and 22.0 nM"}, {"measurement": "concentration in Heart", "setting": "[1]", "result": "17.4 nM and 16.0 nM and 21.9 nM and 30.1 nM and 12.7 nM and 31.4 nM and 13.7 nM and 23.2 nM and 22.8 nM and 37.0 nM"}, {"measurement": "concentration in Hippocampus", "setting": "[1]", "result": "7.0 nM (2×) and 11.6 nM and 10.6 nM and 8.8 nM and 16.4 nM and 13.4 nM and 13.7 nM and 8.2 nM"}, {"measurement": "concentration in Hypothalamus", "setting": "[1]", "result": "17.1 nM and 11.9 nM and 21.1 nM and 15.8 nM and 17.4 nM and 37.6 nM and 28.8 nM and 15.7 nM and 38.9 nM and 17.3 nM"}, {"measurement": "concentration in Kidney (L, tip)", "setting": "[1]", "result": "179.0 nM and 213.3 nM and 187.5 nM and 115.0 nM and 24.6 nM and 35.5 nM and 103.9 nM and 240.4 nM and 212.2 nM and 36.9 nM"}, {"measurement": "concentration in Liver (R, superficial lobe)", "setting": "[1]", "result": "18.7 nM and 37.1 nM and 25.7 nM and 26.6 nM and 40.2 nM and 26.1 nM and 16.4 nM and 16.1 nM and 21.8 nM and 28.8 nM"}, {"measurement": "concentration in Lower Cervical Spinal Cord", "setting": "[1]", "result": "5.3 nM and 6.6 nM and 7.3 nM (2×) and 5.2 nM and 4.7 nM and 7.0 nM and 6.5 nM and 10.1 nM and 10.9 nM"}, {"measurement": "concentration in Lumbar Spinal Cord", "setting": "[1]", "result": "5.1 nM and 4.9 nM and 5.8 nM and 4.7 nM and 5.0 nM and 5.35 nM and 4.2 nM (2×) and 5.6 nM and 4.6 nM"}]}
